In the Immune Epitope Database (IEDB):
pIC50: −log10 of the molar value.

Tests used:
Assay in all cases: IEDB peptide-MHC binding, purified MHC/competitive/radioactivity; ≥ and ≤ were set here for values at or beyond the usual limits of such assays
Settings in all cases: source organism: Bordetella pertussis
[1] = molecular target: HLA-B*35:01
[2] = molecular target: HLA-B*57:01
[3] = molecular target: HLA-B*07:02
[4] = molecular target: HLA-B*53:01
[5] = molecular target: HLA-A*02:01
[6] = molecular target: HLA-B*44:03

In the case of EVAGALELS, the pIC50 [1] was 4.16.
With VSSATKAKG the pIC50 [2] was ≤ 4.15.
For GKSLKKKNQ, the pIC50 [1] was 4.16.
In the case of NITNKRAAL, the pIC50 [3] was 4.64.
For DHLTGRSCQ, the pIC50 [2] was ≤ 4.15.
With GAFDLKTTF the pIC50 [2] was 4.29.
KPLADIAVV was tested, and the pIC50 [3] was 5.26.
DATFQTYAL showed a pIC50 [1] of 4.77 and a pIC50 [4] of 4.18.
Work on LALQAGDAL yielded a pIC50 [1] of 4.50.
In the case of ALANDGTIV, the pIC50 [5] was ≤ 4.11.
MAAGHDATL gave a pIC50 [4] of 5.21.
In the case of FEGKPALEL, the pIC50 [6] was ≤ 4.15.
With PKPKPKPKA the pIC50 [1] was 4.16.
Work on RSRVRALSW yielded a pIC50 [2] of 7.23.
